Experiment: soluble fraction after stress (log2 fold change); higher = more stays soluble; pooled small domains, quantitative proteomics
Details: stress: pH 4
Method in brief: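 Pooled custom libraries of small protein domains were stressed at pH 4 and then measured by high-throughput quantitative proteomics. The fold change in the amount of each domain that stays soluble after the acid stress serves as a measure of aggregation propensity. Fold changes are given on a log2 scale, and higher values mean more of the domain stayed soluble.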

Sequence	soluble fraction (log2)
HMSYPTAVTQTTLNVRTGPGTQYERLGAFVENTEVIVLTRQPEWIQVRGMSGDKAIIGWVSARYLQMNP	0.18
HMFPELEPDEQLIADLLRKTNNLQINIITVRTGLPINRVTALLFQMEMKGVVRPLAGGTYHLLV	-0.389
HMTVMTGSQRRKKILELMRDAKEPLSGGALGKETGVSRHVVVQDIALLRTQGYPIVATARGYIINE	≥ 0.43
HMYTVVVGDSPSLIADKTGVPLKELTAMNPNLSDNFLPGKQLL	-0.076
HMLERKFGTSLEIKSLSKFLIENNYKKNAKYLNKLIQVLGTRSENRIIKTFFKQFPEIENIFRNQL	-0.493
HMLGIGANVQKIAQERKISLKELSRRAGIPYTTIYNMVKRDSSRVSPENLQKLADALGVEIGKLYG	≥ 0.43
HMFNIIARQEIDEILYEYKIENSEDYKNRDPEELAEIYENIKTVQENHDLSDDDVEELLKSIFSDY	-2.2
HMELNILELKSKERKISLEDHLYIKSFNFDNETNEYFYRLAFNSSKDLKNFKATINNDKTISIINFEI	-2.14
HMSSQADEEALFKLLAANPYSDEQLEEIRIAIGSGIAYKDIIRIADIGNTAERMKQLRLEFTKDTAN	-0.353
HMGEPVEIEEPITVRSLSEALGLKSSAIISHLMRQGVFATINQNLDKETAELIAAEYGIELRIK	-0.0783
HMEEMADILKTRIDTLDLSTRTLNALTGANIRTVGGIARKKKEDLLELAGMGEKGIQEIKKVLGGFGITL	0.15
HMSSLQFVTLTLMEGHAWVGREIQELLMPPQMRIALIRRGDSQVIPKGSTILESADELILSAIEYQG	-2.51
HMNPAIYIRKNILNLTQEKLSEYLDVTQPTIHRWEESGVIPAKHQRQIREFASEKGIYWNDSWFFSIPDE	-1.2
HMLLNSLIDTLAAEKATVVPGTEVFKLYDTYGFPWELTEEIASERGFTIDHEGFEAAMKEQRERAREARV	0.0336
HMGHKTLTVELQEKIENLPQTLDKYNLTLGNNKMSVDYTYSVKEKQTGITNLLQDLKEHKFDIVYLVGQDN	-0.613
HMSGTGSYVALLRDPQGNVGKVVVKGSKGEQVLSQPQQAARLDGATPSYEVTGRQIAEDFGRALAV	-0.198
HMDDFPLKRGSKGNRVTLLQNALVKKYGAGILPKYGVDGMFGKEVEAALVHAKIPTTINEANYTKIV	0.104
HMDWNPVRDITAHQVLAILQATHIRAPTVAAEAKRTLSSIFQFAVATLRADIDPVWPVRNALPKNKT	-0.561
HMERDVNQLTPRERDILKLIAQGLPNKMIARRLDITESTVKVHVKHMLKKMKLKSRVEAAVWVHQERI	0.0307
HMGVGTTDERLAVLNQIASRQTEALEKLGPNNPLVGLGQIRNTLSKMLEISGYPDSNQFFKQVPLDYEPPP	-0.0341
HMEPTAEQLKAIRQFASVNGRSWKSELRYLWETGAYHRAALGGADPGYLQQVRNQFGPGWLRAFKISK	-0.113
HMIAANMTISQRIAAALAEYGVMSVKDIAQEVLGATDKKDTEKIRVTLTRDHGKRFRTYSDGTWSLKDWRP	0.234
HMVEEVDYGTFMRMIEEKNIGKVEVRAGEIVFTDKDEKQIYKTGAMEDATLTQRLYESGAEFSKDV	-0.507
HMKVSVDLSMFEDDQTADRNAAVAWVVDELGAGGVDRTILMQLQSTGWSAEQSRAILDLASAGR	-0.324
HMQVQHVWNRLKRPNGDVLYEINRDHPLVSASLDAAADRGAIETLLRQIEQSLPVNQLYVDMNADEHFE	-0.812
HMDSSLVWVDYLLGSKLTKLNSSNELTGPGASAKTIGAFLGENKQSFDLYIESVHNARDTYSDILTHGT	-0.122
HMKKMEEEFALFNAWVDRRLGIPLAAYKENQMQRRILTIMENSGAKTLREYQQLIEGDEGVRAAFLAHIT	-1.76
HMEIHIGSLIKEKMEERGLSVSDFAHALHYERTNIYKIFKRSSIDVDLLLRISEVLAYDFLREVYL	-1.9

Sequence	soluble fraction (log2)
HMNVESMVGKQGKVVVEIDNISAKGMIKVDGMEWTARSVDGEIIPKDSLVAVVSVEGVKAMVRKAE	0.15
HMLLKIRPDLDGNEIMKLLNIAAGPNVGKAYEHLLELRLEHGPLGKERAEQELMNWWSARSQ	-0.371
HMTIRLKELRKQKGNTQAEVAKILGTNQSQYGKYENERTQLSLDNAKILSDYFGVSVPYLLGLDDNP	-0.486
HMLLTHPKRVFTYELIMELVWNEDYTFYSKKAVSNHMSNLRKKLKVTPDALDYIKNIVGVGYKFEA	-0.0812
HMDINNTNFSRDVDNLLQNEEFIKWRIFRTKEWEDYWENFRKENPHMEDALQEAISRFNAVK	-0.736
HMAPPTAEFFAHLPAEALSAVRRSVEEGNARGIDEAILRVETLDGEAGRVLRGLAARYEYGRILELTQR	-0.0842
HMGGSLADAKRFLADLLADGPVPAKGVRADADGAGHTWPTIRRAQKALGIEATKTGMKGGWVWALPR	0.00461
HMTQFSLTTEEINVLKKSYSEFTDSDKELFNKILEKYNKFKNESSNDIAFEAKILEKLQEIENFYE	-1.45
HMIIDPQIRTLWTSQIIDILKSNPKRSIRSILELYPSNKESWVLIILQELIGEEKIIRDLDYLYFNK	-1.26
HMITEDQVIARIGLLSPAEKSLLKDKLERFRRLTLSEQQHLREFHSALDNHDKRTDLLNVLRKYNDWVNQL	-0.736
HMGQDTTIVVRRGESLLGIAARLLPATDFYTTGELAEGIRTASGMENDRLIPGQTLRVPLNSG	0.0588
HMNNSSIGERLKYQRKIKGYSQEELADRTNVTVRTIQRIEKEEVSPHLNTIKLLAIALDIEVDELVAL	-1.18
HMVIIPNILNKYKGLAFRQLEQVGLKIGDTIYEPNIQRDAVLRMQINGRSVQPGDQVMRFSVVDLVIG	-1.14
HMTGKASEIAALLEQRIAAGDYPAGSKLPSERELAASFHVSRNTIRDAIALLAARKIVSTKWGAGTVVLG	-0.0946
HMSKNVTMPNLVGYSMRQAKAELLSRGLHLGKLIYVNDIATNNVISQLYRNAEIEPGVKIESESYVDLVVG	-0.631
HMSNNILEISSNKKNMKIQENKNLVESYYSKTENLYSFKLVFKNKRDLDQFLKEVYEDDSTINYKTSS	-0.524
HMQTYTYYIAKNDISIGQKITPDMLIEKQVNLGDSKDRYLSREQLETGKYIAVRQIPAGELISSASANE	0.0749
HMTDEEKENLREKMLEAGFPLLKQYGMTHTSVAKITQAAGIAVGTFYSFWKNKEAYMADLIGYHRR	0.105
HMEDAWMKKELWDAIATLPKKQRLVMTMRLTNNHSYKEIAAILGISENSAKVSYHHAVERLKEKFK	0.0668
HMKPSTETLYATARINVRAAADTSAEKLGSIEMGEAVVRTGTDGDWSIIEYNGSTGYVKSEYLTANAGDAT	-0.188
HMKVWYAGINAQRVGPMTLGAMEQQIRYGRVLFSTLIWKSPMPQWVPAGDVPELRRLLDEHMLNQMP	-0.676
HMLPDDDMLLNILTKLLIDKQFVINSHEIFDFIIKRANRSYEEMFILVNKLDQLSLEKKRQLTIPLIKEI	-1.22
HMHAPKIIVLTINPDKIRDVIGPGGKMIKSIVAATGVKMDVEDDGKIHISSSDQKAADEAIRMINEITAEA	0.223
HMVITPESVKEQVLAIISKSPAQGFNYKQISKRLNINDPSERKMVSDILRELSESGTIEEINKGKYRAKV	-0.055
HMEDLMEERKEHLLSVMKDPAYVPMKQKELAMLLNVPKGLREELNQVLDALVAEGSVVMSKRGKYTIPQ	0.189
HMHVVVIDKQGALSYQGKAITLLDLKNIVIDVPKETPFLIKADKDIHLQSFVEVLDLIKTAGFKKVSLQ	-0.459
HMASFGDLSGLKRTYPPQGLPDASRIADFLIARNEGDLSVEQVKALERFLFEHPDHERTARLVAATRVPA	-0.115

Reference: the domain aggregation screens of Martell et al. (2025)
